# Test results published in patent US20260347455 (published 2026).
# T1: human BMP6 (Peprotech 120-06) (human)
# T1 chain: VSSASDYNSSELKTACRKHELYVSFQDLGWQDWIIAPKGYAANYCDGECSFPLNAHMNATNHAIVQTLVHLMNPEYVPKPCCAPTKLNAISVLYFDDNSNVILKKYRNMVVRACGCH
# Assays:
# [1] = target: T1, human BMP6 (Peprotech 120-06); assay: SPR, 37C, pH 7.6
# [2] = target: T1, human BMP6 (Peprotech 120-06); assay: SPR, 37C, pH 7.6, bivalent (relative KD)
Kd [1] [nM],Kd [2] [nM],Binder
0.14,–,"CL-58838 Fab (antibody, V domains shown) VH: QVQLVESGGGLVKPGGSLRLSCAASGFTFSDYYMSWIRQAPGKGLEWVSYISISGSTIYYADSVKGRFTISRDNAMDSLYLQMNSLRAEDTAVYYCARRSSGWYDYWGQGTLVTVSS VL: EIVLTQSPGTLSLSPGERATLSCWASQRVVYRYLAWYQRKPGQAPRLLIYGAFNRATGIPDRFSGSGSGTDFSLTISRLEPEDFAVYYCHQYGSSPPTFGQGTKVEIK"
–,0.07,"CL-58838 IgG4 (antibody, V domains shown) VH: QVQLVESGGGLVKPGGSLRLSCAASGFTFSDYYMSWIRQAPGKGLEWVSYISISGSTIYYADSVKGRFTISRDNAMDSLYLQMNSLRAEDTAVYYCARRSSGWYDYWGQGTLVTVSS VL: EIVLTQSPGTLSLSPGERATLSCWASQRVVYRYLAWYQRKPGQAPRLLIYGAFNRATGIPDRFSGSGSGTDFSLTISRLEPEDFAVYYCHQYGSSPPTFGQGTKVEIKR"
